Test [1] addresses T1, ECE1 (Homo sapiens, UniProt P42892).
T1 construct: purchased R & D systems 1784-ZN-010
T1 sequence (P42892 1-770): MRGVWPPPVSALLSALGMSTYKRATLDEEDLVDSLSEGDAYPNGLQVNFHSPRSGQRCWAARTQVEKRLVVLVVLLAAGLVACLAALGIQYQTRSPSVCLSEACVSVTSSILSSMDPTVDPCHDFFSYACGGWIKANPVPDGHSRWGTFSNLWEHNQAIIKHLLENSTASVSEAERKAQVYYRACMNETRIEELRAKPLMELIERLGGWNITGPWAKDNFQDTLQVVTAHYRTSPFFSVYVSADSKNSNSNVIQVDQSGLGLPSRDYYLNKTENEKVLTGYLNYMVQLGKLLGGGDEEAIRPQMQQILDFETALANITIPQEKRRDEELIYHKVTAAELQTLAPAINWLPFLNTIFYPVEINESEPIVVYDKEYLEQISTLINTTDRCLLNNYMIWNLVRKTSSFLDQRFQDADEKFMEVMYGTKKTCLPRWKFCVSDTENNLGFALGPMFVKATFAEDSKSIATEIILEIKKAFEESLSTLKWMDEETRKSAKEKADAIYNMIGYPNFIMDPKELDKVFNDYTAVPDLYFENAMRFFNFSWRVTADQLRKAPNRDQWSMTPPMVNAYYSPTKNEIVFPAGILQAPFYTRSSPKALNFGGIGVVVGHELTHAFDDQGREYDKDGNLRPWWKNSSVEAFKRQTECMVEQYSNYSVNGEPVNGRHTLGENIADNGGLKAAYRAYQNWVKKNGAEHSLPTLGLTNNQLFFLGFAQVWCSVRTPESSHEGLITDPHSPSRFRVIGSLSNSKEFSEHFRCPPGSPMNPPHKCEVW
Briefly: QFS plate reader enzyme assay, peptide screen on ECE1 activity (Example 3). It is filed as biochemical. As to conditions: peptide 10 ng/μL, ECE1 0.05 ng/μL, 1 h at 37° C.; compared to enzyme alone. The protocol: (§1) Plate reader-based enzyme assays were performed using a quenched fluorescent substrate (QFS) in a 96-well format using a SpectraMAX M4 Microplate reader (Molecular Devices). The increase in fluorescence following addition of QFS (40 μM) was taken as evidence of enzyme activity. Fluorescence was monitored over 2 h at 37° C. using κEx=320 nm and λEm=405 nm. Assays were conducted in black 96-well plates. Specific enzyme activity was expressed as a rate of substrate cleavage calculated using a standard curve of 7-methoxy-coumarin-4-acetic acid.
(§2) In all plate reader-based enzyme assays using QFS, the reaction rate (μmol of substrate cleaved/min) was calculated using linear regression analysis (GraphPad Prism software version 8.01). The reaction rates calculated were used to generate the enzyme kinetic parameters Vmax and Km through non-linear regression analysis (GraphPad Prism software, version 8.01; Michaelis-Menten equation). Where indicated, enzyme activity in the presence of peptide was expressed as a % of the enzyme alone. Data were expressed as mean±SEM and statistical significance was determined using t-tests or one-way ANOVAs followed by Tukey's post-hoc test. P<0.05 was considered as statistically significant. In all assays conducted using 96-well plates, the reaction mixtures in each well were considered an independent experiment.
(§3) SEQ ID NOS: 1, 5 and 9-15 were screened for their effects on NEP and ECE1 using a high-throughput QFS assay using the method in Example 2 and the following procedure. NEP or ECE1 (0.05 ng/μL) was incubated with each peptide (10 ng/μL) for 1 h at 37° C.

Test [2] deals with T2, NEP (Homo sapiens, UniProt P08473).
T2 construct: purchased R & D systems 1182-ZNC-010
Briefly: QFS plate reader enzyme assay, peptide screen on NEP activity (Example 3). In kind it is biochemical. To be noted: peptide 10 ng/μL, NEP 0.05 ng/μL, 1 h at 37° C.; compared to enzyme alone. The protocol: as §1, §2, §3

For test [3], the target named is T1, ECE1. As to conditions: Smith A I et al., (2016) Scientific reports 6:22413; cited from earlier work.
In test [4] the target is T2, NEP. As to conditions: Smith A I et al., (2016) Scientific reports 6:22413; cited from earlier work.

T2 sequence (P08473 whole entry): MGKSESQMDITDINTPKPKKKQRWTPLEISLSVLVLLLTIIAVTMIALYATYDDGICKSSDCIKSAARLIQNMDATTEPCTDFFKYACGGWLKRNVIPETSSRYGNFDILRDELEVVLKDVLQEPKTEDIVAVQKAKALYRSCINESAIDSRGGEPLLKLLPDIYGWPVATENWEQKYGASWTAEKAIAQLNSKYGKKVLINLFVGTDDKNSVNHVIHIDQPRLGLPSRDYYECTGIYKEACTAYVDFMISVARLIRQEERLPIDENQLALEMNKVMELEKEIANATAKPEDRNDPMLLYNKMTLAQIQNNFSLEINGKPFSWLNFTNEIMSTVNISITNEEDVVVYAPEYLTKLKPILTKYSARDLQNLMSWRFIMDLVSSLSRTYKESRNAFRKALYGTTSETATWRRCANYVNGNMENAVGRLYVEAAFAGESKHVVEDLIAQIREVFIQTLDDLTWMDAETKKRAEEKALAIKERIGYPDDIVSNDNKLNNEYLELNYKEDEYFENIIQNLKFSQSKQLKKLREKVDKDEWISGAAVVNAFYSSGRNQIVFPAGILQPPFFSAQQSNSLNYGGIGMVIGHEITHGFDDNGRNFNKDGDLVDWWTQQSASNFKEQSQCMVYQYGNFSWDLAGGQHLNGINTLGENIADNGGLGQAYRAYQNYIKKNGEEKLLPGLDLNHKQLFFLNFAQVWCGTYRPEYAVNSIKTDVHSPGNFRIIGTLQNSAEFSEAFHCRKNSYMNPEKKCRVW

As to H-SLFELGKMILQETGKNPAKS-OH [SEQ ID NO:9], the ECE1 activity result in the test with ECE1 [1] is listed as “significantly stimulate”. Besides, the NEP activity entry with NEP [2] is “significantly stimulate”. In the test with ECE1 [3], the “ECE1 activity (previous studies)” value is given as “directly increase the activity”. For the same substance, the “NEP activity (previous studies)” value with NEP [4] is on record as “directly increase the activity”.

The values are drawn from patent US20240002441A1, “PEPTIDES AND USES THEREOF IN MODULATION OF AMYLOID-BETA PROTEIN DEGRADING PROTEASES” (priority 2020, published 2024).
